Assay results published in publication PMC7929516, “Hallmarks of Alpha- and Betacoronavirus non-structural protein 7+8 complexes” (Science Advances, 2021).
Residue numbers refer to the chain shown, from its start.

B1: PEDV nsp7 (natural protein)
chain: SKLTDIKCSNVVLLGCLSSMNVSANSTEWAYCVDLHNKINLCNDPEKAQEMLLALLAFFLSKNSAFGLDDLLESYFNDNSMLQ
B2: MERS-CoV nsp7 (natural protein)
chain: SKLTDLKCTSVVLLSVLQQLHLEANSRAWAFCVKCHNDILAATDPSEAFEKFVSLFATLMTFSGNVDLDALASDIFDTPSVLQ
B3: FIPV nsp7 (natural protein)
chain: SKLTEMKCTNVVLLGLLSKMHVESNSKEWNYCVGLHNEINLCDDPDAVLEKLLALIAFFLSKHNTCDLSDLIESYFENTTILQ
notes: also called feline CoV nsp7
B4: TGEV nsp7 (natural protein)
chain: B3 chain with D46E, A47I, D70E
B5: HCoV-229E nsp7 (natural protein)
chain: SKLTDLKCTNVVLMGILSNMNIASNSKEWAYCVEMHNKINLCDDPETAQELLLALLAFFLSKHSDFGLGDLVDSYFENDSILQ

What was measured:
[1] = target: HCoV-229E nsp7-8-His6 precursor (HCoV-229E); test: native MS
[2] = target: SARS-CoV nsp7-8-His6 precursor (SARS-CoV (strain Frankfurt-1)); test: native MS
[3] = target: PEDV nsp7-8-His6 precursor (PEDV (strain CV777))
[4] = target: SARS-CoV-2 nsp7-8-His6 precursor (SARS-CoV-2); test: native MS
native MS = target: the molecule itself; test: native MS

| Molecule | stoichiometry N (native MS) | also measured |
| --- | --- | --- |
| HCoV-229E nsp7-8-His6 precursor (domain or fragment) | – | stoichiometry N [1]: 2 |
| SARS-CoV nsp7-8-His6 precursor (domain or fragment) | – | stoichiometry N [2]: 2 |
| PEDV nsp7-8-His6 precursor (domain or fragment) | – | stoichiometry N [3]: 2 |
| SARS-CoV-2 nsp7-8-His6 precursor (domain or fragment) | – | stoichiometry N [4]: 2 |
| B1 | 2 | – |
| B2 | 2 | – |
| B3 | 2 | – |
| B4 | 2 | – |
| B5 | 2 | – |
